The results in this text go back to US20200087405A1 (UNIVERSITY OF SASKATCHEWAN, published 2020).

Changes are numbered by the printed parent chain.

Assay [1] has as its target T1, Fc-tagged extracellular domain (ECD) of the recombinant human EGFR (rhEGFR) (human, UniProt P00533 25-645).
T1 construct: extracellular domain; also called rhEGFR-ECD; rhEGFR-ECD-Fc; not shown: Fc tag of the bought protein (R&D 344-ER)
The experiment in a line: ELISA: biotinylated EGF on immobilized EGFR, with or without pre-incubation with unlabeled EGF. Background: ELISA stands for enzyme-linked immunosorbent assay.

The target in assay [2] is T2, Fc-tagged ECD of ErbB2 (ErbB family member, R&D 1129-ER) (human, UniProt P04626 23-652).
T2 construct: extracellular domain; not shown: Fc tag of the bought protein
Nature of the assay: ELISA on immobilized Fc-tagged ErbB ECDs.

Assay [3] has as its target T3, Fc-tagged ECD of ErbB3 (R&D 348-RB) (human, UniProt P21860 20-643).
T3 construct: extracellular domain; also called ErbB family member; not shown: Fc tag of the bought protein
The experiment in a line: ELISA on immobilized Fc-tagged ErbB ECDs.

The target of assay [4] is T4, Fc-tagged ECD of ErbB4 (ErbB family member, R&D 1131-ER) (human, UniProt Q15303 26-651).
T4 construct: extracellular domain; not shown: Fc tag of the bought protein
T4 sequence (looked up): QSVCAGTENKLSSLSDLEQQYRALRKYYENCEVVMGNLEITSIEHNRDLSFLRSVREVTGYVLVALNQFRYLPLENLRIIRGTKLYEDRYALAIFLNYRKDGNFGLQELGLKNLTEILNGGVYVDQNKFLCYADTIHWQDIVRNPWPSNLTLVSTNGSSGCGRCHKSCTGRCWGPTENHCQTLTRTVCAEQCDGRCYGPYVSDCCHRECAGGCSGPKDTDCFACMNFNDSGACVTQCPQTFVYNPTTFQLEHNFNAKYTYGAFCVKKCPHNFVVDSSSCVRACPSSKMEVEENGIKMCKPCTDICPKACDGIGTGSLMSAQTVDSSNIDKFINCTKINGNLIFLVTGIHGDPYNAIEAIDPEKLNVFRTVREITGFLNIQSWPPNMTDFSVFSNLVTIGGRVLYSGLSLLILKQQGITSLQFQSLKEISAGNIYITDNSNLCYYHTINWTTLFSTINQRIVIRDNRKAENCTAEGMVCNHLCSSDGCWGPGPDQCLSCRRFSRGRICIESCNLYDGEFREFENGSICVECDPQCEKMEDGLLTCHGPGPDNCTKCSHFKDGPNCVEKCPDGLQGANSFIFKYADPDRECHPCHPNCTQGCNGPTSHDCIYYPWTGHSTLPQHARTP
The experiment in a line: ELISA on immobilized Fc-tagged ErbB ECDs.

Assay [5] addresses T5, EGFR-D28 on HEK293F cells (UniProt P00533 25-1210).
T5 construct: whole, on cells; also called EGFR-28; not shown: C-terminal GFP of the parent EGFR-GFP construct
Nature of the assay: flow cytometry dose response on transfected HEK293F cells. In general terms: In flow cytometry, cells or beads pass a laser one at a time.

Assay [6] has as its target T6, EGFR-DM (Y251A/R285S) on HEK293F cells (UniProt P00533 25-1210).
T6 construct: whole, on cells; not shown: C-terminal GFP of the parent EGFR-GFP construct
The assay is described as above.

For assay [7], the target named is T7, full-length EGFR with a C-terminal GFP fusion (EGFR-GFP) on HEK293F cells (UniProt P00533 25-1210).
T7 construct: whole, on cells; also called EGFR (HEK293F transfected); not shown: C-terminal GFP fusion
The experiment in a line: flow cytometry dose response on EGFR-293F cells.

For assay [8], the target named is T8, cell-surface EGFR (endogenous on A431, MDA-MB-231 and other cancer cell lines); pBABE-EGFR transfected 293T … (UniProt P00533 25-1210, limits assumed).
T8 construct: whole, on cells; Untagged EGFR on cells; also called endogenous cell-surface EGFR; EGFR1
The experiment in a line: flow cytometry dose response on A431 cells, without EGF.

Assay [9] has as its target T7, full-length EGFR with a C-terminal GFP …. The experiment in a line: flow cytometry on HEK293F cells transiently expressing EGFR.
Assay [10] has as its target T1, Fc-tagged extracellular domain (ECD) of …. Nature of the assay: biolayer interferometry, Fab immobilized, rhEGFR-ECD-Fc in solution, 1:1 model. In general terms: In BLI a coated tip is dipped into the sample, and binding shifts an interference pattern.
For assay [11], the target named is T6, EGFR-DM (Y251A/R285S) on HEK293F cells. Nature of the assay: flow cytometry on HEK293F cells transiently expressing EGFR-DM.
The target of assay [12] is T5, EGFR-D28 on HEK293F cells. The experiment in a line: flow cytometry on HEK293F cells transiently expressing EGFR-D28.
For assay [13], the target named is T8, cell-surface EGFR (endogenous on A431, …). The experiment in a line: flow cytometry dose response on A431 cells after incubation with 10 nM EGF.
Assay [14] addresses T1, Fc-tagged extracellular domain (ECD) of …. Nature of the assay: biolayer interferometry, Fab immobilized, rhEGFR in solution, 1:1 global fit.
Assay [15] addresses T9, EGFR fragment D3-D4 on HEK293F cells (UniProt P00533 334-645, limits assumed).
T9 construct: domain: D3-D4
The experiment in a line: flow cytometry heat map of relative binding, 293F cells expressing EGFR EC domains.

In assay [16] the target is T10, EGFR fragment D2-D3-D4 on HEK293F cells (UniProt P00533 190-645, limits assumed).
T10 construct: domain: D2-D3-D4
The description is as above.

The target in assay [17] is T11, EGFR-vIII on HEK293F cells (UniProt P00533 25-1210).
T11 construct: whole, on cells
Nature of the assay: flow cytometry, HEK293F cells transiently expressing EGFR-vIII against cells expressing GFP.

The target of assay [18] is T1, Fc-tagged extracellular domain (ECD) of …. Nature of the assay: competitive phage ELISA with soluble rhEGFR as competitor, phage-displayed Fab.
For assay [19] the target is unchanged. Nature of the assay: competitive phage ELISA with soluble rhEGFR as competitor, phage-displayed Fab; affinity-matured clone Fab 8708.
The target is the same in assay [20]. The experiment in a line: multi-point competitive ELISA: soluble EGFR competes with immobilized EGFR for Clone 23.
Assay [21] shares this target. Nature of the assay: multi-point competitive ELISA: soluble EGFR competes with immobilized EGFR for Clone 24.

B1: Recombinant EGF ligand (ligand, UniProt P01133 971-1023, looked up)
chain: NSDSECPLSHDGYCLHDGVCMYIEALDKYACNCVVGYIGERCQYRDLKWWELR
modifications: biotinylated with the N-hydroxysuccinimide ester of biotin in the ligand binding ELISA
notes: also called biotinylated EGF
As for B1, in assay [1], the binding result is on record as “binds”.

B2: Fab 8709 (Fab H) (Fab)
heavy: EVQLVESGGGLVQPGGSLRLSCAASGFNLYSSSMHWVRQAPGKGLEWVASIYPYSGYTYYADSVKGRFTISADTSKNTAYLQMNSLRAEDTAVYYCARYPFGVSAYYAMDYWGQGTLVTVSSASTKGPSVFPLAPSSKSTSGGTAALGCLVKDYFPEPVTVSWNSGALTSGVHTFPAVLQSSGLYSLSSVVTVPSSSLGTQTYICNVNHKPSNTKVDKKVEPKSCDKTHT
light: DIQMTQSPSSLSASVGDRVTITCRASQSVSSAVAWYQQKPGKAPKLLIYSASSLYSGVPSRFSGSRSGTDFTLTISSLQPEDFATYYCQQSYWLITFGQGTKVEIKRTVAAPSVFIFPPSDSQLKSGTASVVCLLNNFYPREAKVQWKVDNALQSGNSQESVTEQDSKDSTYSLSSTLTLSKADYEKHKVYACEVTHQGLSSPVTKSFNRGECGGSDYKDDDDK
notes: From library F. Purified Fab in most assays
Take B2: the binding result in [2] is “no binding”; in [3], “no binding”; in assay [4], “no binding”; in assay [15] it was “no binding”; in assay [16] it was “no binding”; in [17], “no binding (tested: 200 nM)”. In addition, the “fold change of EC50 against EGFR” value in [5] and in assay [6] was < 3 fold in each case. The results for the half-maximal effective concentration (EC50 (read off the curve)) in [7], in assay [8] and in assay [13] were ~0.6 nM, ~0.6 nM and ~3 nM, respectively. In addition, the EC50 (usually the concentration that produces a half-maximal response) in assay [9] is 0.6 nM; in [11], 1.4 nM; in assay [12], 1.4 nM. In addition, in assay [10], the “fold faster off-rate than Fab 8708” value was 3 fold. In [10], the “fold faster on-rate than Fab 8708” value came to 18 fold. Moreover, in assay [14], the Kd (in general, the concentration at which binding is half-saturated) stood at 1.4 nM. Moreover, the off-rate constant (koff) – broadly, the first-order rate constant of dissociation – in assay [14] turned out to be 0.00017 s⁻¹. Besides, in assay [14], the kon (usually the rate constant with which the complex forms) stood at 130000 M⁻¹ s⁻¹.

B3: Fab 8708 (Fab DL06 AM SR02) (Fab)
heavy: EVQLVESGGGLVQPGGSLRLSCAASGFNISSSSIHWVRQAPGKGLEWVAYISSYYSSTYYADSVKGRFTISADTSKNTAYLQMNSLRAEDTAVYYCARTYCPPLMRYNPTTYQMDVNPEAQYSFGATCGWAMDYWGQGTLVTVSSASTKGPSVFPLAPSSKSTSGGTAALGCLVKDYFPEPVTVSWNSGALTSGVHTFPAVLQSSGLYSLSSVVTVPSSSLGTQTYICNVNHKPSNTKVDKKVEPKSCDKTHT
light: DIQMTQSPSSLSASVGDRVTITCRASQSVSSAVAWYQQKPGKAPKLLIYSASSLYSGVPSRFSGSRSGTDFTLTISSLQPEDFATYYCQQWSYYPITFGQGTKVEIKRTVAAPSVFIFPPSDSQLKSGTASVVCLLNNFYPREAKVQWKVDNALQSGNSQESVTEQDSKDSTYSLSSTLTLSKADYEKHKVYACEVTHQGLSSPVTKSFNRGECGGSDYKDDDDK
notes: Purified Fab in most assays; also called DL06 SR02; Fab DL06 SR02
Consider B3, for which the binding result in assay [2] is “no binding”; in assay [3], “no binding”; in assay [4], “no binding”; in assay [15], “no binding”; in assay [16], “no binding”; in [17], “no binding (tested: 200 nM)”. Also, the “fold change of EC50 against EGFR” value in assay [5] and in assay [6] was < 3 fold throughout. For the same molecule, the 50% effective concentration (EC50 (read off the curve)) in assay [7] and in assay [8] was ~6 nM each time. Moreover, the EC50 in assay [9] came to 8.2 nM; in assay [11], 23 nM; in [12], 21 nM. The “fold enhancement in affinity against parent Fab DL06” value in [18] worked out at 7 fold. Further, in assay [14], the dissociation constant Kd stood at 6.8 nM. Besides, in assay [14], the koff was found to be 5.6e-05 s⁻¹. In assay [14], the kon was found to be 7000 M⁻¹ s⁻¹. Moreover, the IC50 (in general, the point on the concentration scale where inhibition reaches its midpoint) in assay [19] was ~30 nM.

B4: Fab DL06 AM Clone 23 (Fab)
heavy: EVQLVESGGGLVQPGGSLRLSCAASGFNISSSSIHWVRQAPGKGLEWVAYISSYYSSTYYADSVKGRFTISADTSKNTAYLQMNSLRAEDTAVYYCARTFCPPIMLFNATSFELDIDAEAKFSFASTCGWAMDYWGQGTLVTVSSASTKGPSVFPLAPSSKSTSGGTAALGCLVKDYFPEPVTVSWNSGALTSGVHTFPAVLQSSGLYSLSSVVTVPSSSLGTQTYICNVNHKPSNTKVDKKVEPKSCDKTHT
light: B3 light
notes: Purified Fab
For the molecule B4, the binding result in assay [20] is “binds”.

B5: Fab DL06 AM Clone 24 (Fab)
heavy: B4 heavy with I104L, A109P, S111T, E113Q, D115E, D117N, F122Y
light: B3 light
notes: Purified Fab
Regarding B5, the binding result in assay [21] was “binds”.
